Source: patent US20260250410A1 (SICHUAN HUIYU PHARMACEUTICAL, published 2026)

T1: human CDCP1 on tumor cells (human, UniProt Q9H5V8 30-836)
T1 sequence (looked up): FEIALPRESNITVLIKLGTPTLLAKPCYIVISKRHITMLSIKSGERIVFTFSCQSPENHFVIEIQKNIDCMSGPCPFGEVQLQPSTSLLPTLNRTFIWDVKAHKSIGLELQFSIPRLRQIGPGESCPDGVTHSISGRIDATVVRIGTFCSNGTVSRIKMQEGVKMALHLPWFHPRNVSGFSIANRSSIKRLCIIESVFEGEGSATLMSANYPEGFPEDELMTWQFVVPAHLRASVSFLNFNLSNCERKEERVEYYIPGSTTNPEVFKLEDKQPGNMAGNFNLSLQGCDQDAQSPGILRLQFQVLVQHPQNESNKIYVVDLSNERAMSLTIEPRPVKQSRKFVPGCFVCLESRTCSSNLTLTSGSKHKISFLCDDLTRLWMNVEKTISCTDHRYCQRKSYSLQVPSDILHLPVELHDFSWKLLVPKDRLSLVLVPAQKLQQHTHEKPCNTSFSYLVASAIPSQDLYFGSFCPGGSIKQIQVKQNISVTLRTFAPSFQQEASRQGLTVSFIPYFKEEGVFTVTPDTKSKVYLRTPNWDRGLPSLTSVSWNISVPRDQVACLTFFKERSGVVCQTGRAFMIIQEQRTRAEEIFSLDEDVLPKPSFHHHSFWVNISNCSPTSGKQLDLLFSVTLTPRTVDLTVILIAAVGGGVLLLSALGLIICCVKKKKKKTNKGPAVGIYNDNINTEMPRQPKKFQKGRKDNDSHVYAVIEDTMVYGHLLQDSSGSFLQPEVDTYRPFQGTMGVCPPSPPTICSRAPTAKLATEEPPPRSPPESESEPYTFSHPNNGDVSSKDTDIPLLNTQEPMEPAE

T2: HuCDCP1-C (human, UniProt Q9H5V8 30-667)
T2 construct: range 30-667; expressed in HEK-293T, purified by Fc/his tag; also called human CDCP1-C; full-length extracellular domain of human CDCP1; not shown: Fc or his tag
T2 sequence (looked up): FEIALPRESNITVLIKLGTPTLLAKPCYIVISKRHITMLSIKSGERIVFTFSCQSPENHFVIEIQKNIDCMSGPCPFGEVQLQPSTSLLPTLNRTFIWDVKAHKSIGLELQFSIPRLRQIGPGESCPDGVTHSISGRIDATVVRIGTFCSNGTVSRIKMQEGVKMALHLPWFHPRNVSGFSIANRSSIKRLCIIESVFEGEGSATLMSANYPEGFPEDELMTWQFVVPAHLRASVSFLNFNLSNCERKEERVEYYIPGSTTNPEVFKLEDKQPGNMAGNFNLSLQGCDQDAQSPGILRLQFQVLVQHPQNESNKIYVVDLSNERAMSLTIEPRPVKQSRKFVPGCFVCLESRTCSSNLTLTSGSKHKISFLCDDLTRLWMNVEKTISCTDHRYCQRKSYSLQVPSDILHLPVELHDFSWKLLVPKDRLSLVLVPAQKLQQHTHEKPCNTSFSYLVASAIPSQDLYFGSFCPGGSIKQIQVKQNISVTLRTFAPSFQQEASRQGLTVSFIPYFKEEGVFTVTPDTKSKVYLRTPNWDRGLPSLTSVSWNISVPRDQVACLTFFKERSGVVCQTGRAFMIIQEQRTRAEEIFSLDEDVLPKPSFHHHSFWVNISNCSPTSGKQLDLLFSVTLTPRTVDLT

B1: 8E5-MMAE (antibody, V domains shown)
VH: EVQLKESGPELKKPGETVKISCKASGYTLTDFSMHWLKQAPGKGLKWMGWINTETGAPTYADDFKGRFALSLDTSANTAYLQINNLKNEDTATYFCSRGRDYDPHFDYWGQGTTVTVSS
VL: EIVLTQSPATLSVTPGDRVSLSCRASQSISDFLHWYQQRSHESPRLLIKYASQSISGIPSRFGGSGSGSDFTLNINTVEPEDVGMYYCQSAHSFPYTFGGGTKLEIK
modifications: vc-MMAE coupled after reduction, sites not stated; DAR 3.65
B2: 5B8-MMAE (antibody, V domains shown)
VH: EVQLKESGGGLVQPGGSLRISCATSGLTFTHYHMSWVRQPPGKAPEWLAIIRNKAYGYTTDYSASVRGRFTISRDDSQSILYLQMNTLRAEDSATYYCVREGGYGYDGTFAYWGQGTTVTVSS
VL: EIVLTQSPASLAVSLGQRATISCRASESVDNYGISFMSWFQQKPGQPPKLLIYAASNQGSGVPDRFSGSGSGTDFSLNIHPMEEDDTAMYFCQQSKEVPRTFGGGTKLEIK
modifications: vc-MMAE coupled after reduction, sites not stated; DAR 3.85
B3: 8C9-MMAE (antibody, V domains shown)
VH: EVQLKESGGGLVQPGGSLRISCATSGLTFTHYHMSWVRQPPGKAPEWLAIIRNKAYGYTTDYSASVRGRFTISRDDSQSILYLQMNTLRPEDSATYYCVREGGYGYDGTFAYWGQGTTVTVSS
VL: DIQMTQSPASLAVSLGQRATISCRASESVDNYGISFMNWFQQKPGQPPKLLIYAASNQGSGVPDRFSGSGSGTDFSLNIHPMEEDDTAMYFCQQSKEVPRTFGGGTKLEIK
modifications: vc-MMAE coupled after reduction, sites not stated; DAR 3.44
B4: 3C11-MMAE (antibody, V domains shown)
VH: EVQLQQSGTVLARPGASVKMSCKASGYNFISYWLHWIKQRPGQGLEWIGGIYPGNTDTTYNQKFKGKAKVTAVTSATTAYMELSSLTNEDSAVYYCIRYDYDRGMDYWGQGTTVTVSS
VL: DIQMTQSPSSFSVSLGDRVTITCRASEDIYYRLAWYQQKPGNAPRLLISGATALETGVPSRFSGSGSGKDYTLSITSLQTEDVATYYCQHYWNIPWTFGGGTKLEIK
modifications: vc-MMAE coupled after reduction, sites not stated; DAR 3.48
B5: 10D2-MMAE (antibody, V domains shown)
VH: EVQLQQSGPELKKPGETVKISCKASGYTFTDYSMHWVKQAPGKGLKWMGWINTETGQPTYADDFKGRFAFSLETSASSAYLQINNLKNEDTATYFCTRTFYYDYVGDYWGQGTTVTVSS
VL: DIVMTQSHKFMSTSVGDRVSITCKASQDVSTAVAWYRQKPGQSPKLLIYWASTRHTGVPDRLTGSGSGTDFALTINSVQAEDLALYYCQQHSSTPYTFGGGTKLEIK
modifications: vc-MMAE coupled after reduction, sites not stated; DAR 3.5
B6: 1CP-151 (antibody, human IgG1, kappa, V domains shown)
VH: EVQLVESGGGLVQPGRSLRLSCTASGLTFTHYHMSWFRQAPGKGLEWVAIIRNKAYGYTTDYSASVRGRFTISRDDSKSILYLQMNSLKTEDTAVYYCVREGGYGYDGTFAYWGQGTLVTVSS
VL: DIQMTQSPSSLSASVGDRVTITCRASESVDNYGISFMNWFQQKPGQAPKLLIYAASNQGSGVPSRFSGSGSGTDFTLTISSMQPEDFATYYCQQSKEVPRTFGGGTKVEIKR
notes: humanized 8C9, human IgG1 kappa
B7: 1CP-158 (antibody, human IgG1, kappa, V domains shown)
VH: EVQLVESGGGLVQPGRSLRLSCTTSGLTFTHYHMSWVRQPPGKAPEWVAIIRNKAYGYTTDYSASVRGRFTISRDDSKSILYLQMNSLKTEDTAVYYCVREGGYGYDGTFAYWGQGTLVTVSS
VL: DIQMTQSPSSLSASVGDRVTITCRASESVDNYGISFMNWFQQKPGQPPKLLIYAASNQGSGVPSRFSGSGSGTDFTLTISSMQPEDFATYYCQQSKEVPRTFGGGTKVEIKR
notes: as for B6
B8: 1CP-159 (antibody, human IgG1, kappa, V domains shown)
VH: EVQLVESGGGLVQPGRSLRLSCTASGLTFTHYHMSWFRQAPGKGLEWVAIIRNKAYGYTTDYSASVRGRFTISRDDSKSILYLQMNSLKTEDTAVYYCVREGGYGYDGTFAYWGQGTLVTVSS
VL: DIQMTQSPSSLSASVGDRVTITCRASESVDNYGISFMNWFQQKPGQPPKLLIYAASNQGSGVPSRFSGSGSGTDFTLTISSMQPEDFATYFCQQSKEVPRTFGGGTKVEIKR
notes: as for B6
B9: 1CP-155 (antibody, human IgG1, kappa, V domains shown)
VH: EVQLVESGGGLVQPGRSLRLSCTASGLTFTHYHMSWFRQAPGKGLEWVAIIRNKAYGYTTDYSASVRGRFTISRDDSKSILYLQMNSLKTEDTAVYYCVREGGYGYDGTFAYWGQGTLVTVSS
VL: DIQMTQSPSSLSASVGDRVTITCRASESVDNYGISFMNWFQQKPGQPPKLLIYAASNQGSGVPSRFSGSGSGTDFTLTISSMQPEDFATYYCQQSKEVPRTFGGGTKVEIKR
notes: as for B6
B10: 1CP-160 (antibody, human IgG1, kappa, V domains shown)
VH: EVQLVESGGGLVQPGRSLRLSCTTSGLTFTHYHMSWVRQAPGKGLEWVAIIRNKAYGYTTDYSASVRGRFTISRDDSKSILYLQMNSLKTEDTAVYYCVREGGYGYDGTFAYWGQGTLVTVSS
VL: DIQMTQSPSSLSASVGDRVTITCRASESVDNYGISFMNWFQQKPGQPPKLLIYAASNQGSGVPSRFSGSGSGTDFTLTISSMQPEDFATYFCQQSKEVPRTFGGGTKVEIKR
notes: as for B6
B11: 1CP-154 (antibody, human IgG1, kappa, V domains shown)
VH: EVQLVESGGGLVQPGRSLRLSCTTSGLTFTHYHMSWVRQPPGKAPEWVAIIRNKAYGYTTDYSASVRGRFTISRDDSKSILYLQMNSLKTEDTAVYYCVREGGYGYDGTFAYWGQGTLVTVSS
VL: DIQMTQSPSSLSASVGDRVTITCRASESVDNYGISFMNWFQQKPGQAPKLLIYAASNQGSGVPSRFSGSGSGTDFTLTISSMQPEDFATYYCQQSKEVPRTFGGGTKVEIKR
notes: as for B6
B12: 1CP-161 (antibody, human IgG1, kappa, V domains shown)
VH: EVQLVESGGGLVQPGRSLRLSCTTSGLTFTHYHMSWVRQAPGKGPEWVAIIRNKAYGYTTDYSASVRGRFTISRDDSKSILYLQMNSLKTEDTAVYYCVREGGYGYDGTFAYWGQGTLVTVSS
VL: DIQMTQSPSSLSASVGDRVTITCRASESVDNYGISFMNWFQQKPGQPPKLLIYAASNQGSGVPSRFSGSGSGTDFTLTISSMQPEDFATYFCQQSKEVPRTFGGGTKVEIKR
notes: as for B6
B13: 1CP-153 (antibody, human IgG1, kappa, V domains shown)
VH: EVQLVESGGGLVQPGRSLRLSCTTSGLTFTHYHMSWVRQAPGKGPEWVAIIRNKAYGYTTDYSASVRGRFTISRDDSKSILYLQMNSLKTEDTAVYYCVREGGYGYDGTFAYWGQGTLVTVSS
VL: DIQMTQSPSSLSASVGDRVTITCRASESVDNYGISFMNWFQQKPGQAPKLLIYAASNQGSGVPSRFSGSGSGTDFTLTISSMQPEDFATYYCQQSKEVPRTFGGGTKVEIKR
notes: as for B6
B14: 1CP-162 (antibody, human IgG1, kappa, V domains shown)
VH: EVQLVESGGGLVQPGRSLRLSCTTSGLTFTHYHMSWVRQPPGKAPEWVAIIRNKAYGYTTDYSASVRGRFTISRDDSKSILYLQMNSLKTEDTAVYYCVREGGYGYDGTFAYWGQGTLVTVSS
VL: DIQMTQSPSSLSASVGDRVTITCRASESVDNYGISFMNWFQQKPGQPPKLLIYAASNQGSGVPSRFSGSGSGTDFTLTISSMQPEDFATYFCQQSKEVPRTFGGGTKVEIKR
notes: as for B6

Assays:
[1] = biological target: T1, human CDCP1 on tumor cells; experiment: cell-based or functional assay
[2] = biological target: T2, HuCDCP1-C; experiment: SPR (Caterra), antigen immobilized
Protocol: The humanized anti-CDCP1 antibodies obtained from Example 11 were subjected to gene cloning, constructed into pTT5 expression vector for a small amount of expression in CHO cells (Expi-CHOS: Gibco A29127), and purified with an Fc affinity column (AT Protein A Diamond Plus. No. AA402312). Antibody purity was analyzed by HPLC and determined by Nanodrop. High-throughput affinity assay was carried out for a small amount of antibodies by Caterra.

| Binder | IC50 (nM), killing of HCT116 cells (120 h), CellTiter-Glo [1] [nM] | IC50 (nM), killing of MDA-MB-231 cells (120 h), CellTiter-Glo [1] [nM] | IC50 (nM), killing of PC3 cells (96 h), CellTiter-Glo [1] [nM] | Kd [2] [nM] | koff [2] [s⁻¹] | kon [2] [M⁻¹ s⁻¹] |
| --- | --- | --- | --- | --- | --- | --- |
| B1 | 10.6 | > 40 | 0.0205 | – | – | – |
| B2 | 11.7 | > 200 | 0.014 | – | – | – |
| B3 | 13 | > 40 | 0.0184 | – | – | – |
| B4 | 2.33 | > 40 | 0.0119 | – | – | – |
| B5 | 11.4 | > 200 | 0.0164 | – | – | – |
| B6 | – | – | – | 19.1 | 0.00302 | 158000 |
| B7 | – | – | – | 2.96 | 0.000321 | 109000 |
| B8 | – | – | – | 42.5 | 0.000767 | 18000 |
| B9 | – | – | – | 36.6 | 0.000579 | 15800 |
| B10 | – | – | – | 3.8 | 0.00042 | 110000 |
| B11 | – | – | – | 2.92 | 0.000346 | 118000 |
| B12 | – | – | – | 3.21 | 0.000365 | 114000 |
| B13 | – | – | – | 3.58 | 0.000388 | 108000 |
| B14 | – | – | – | 2.7 | 0.000305 | 113000 |
